Laboratory results taken from patent US20140017240A1 (University of California, published 2014).

Experiments:
[1] = target: N-cadherin on the cell surface (PC3 cells and LNCaP N-cadherin transfected cells) (human) (UniProt P19022); assay: flow cytometry, phage clone on N-cadherin positive cells (cell line not stated)
[2] = target: T1, N-cadherin extracellular domains one to three recombinant protein with GST tag (human) (UniProt P19022); assay: phage ELISA, plate coated with ECD1-3-GST
T1 sequence (looked up): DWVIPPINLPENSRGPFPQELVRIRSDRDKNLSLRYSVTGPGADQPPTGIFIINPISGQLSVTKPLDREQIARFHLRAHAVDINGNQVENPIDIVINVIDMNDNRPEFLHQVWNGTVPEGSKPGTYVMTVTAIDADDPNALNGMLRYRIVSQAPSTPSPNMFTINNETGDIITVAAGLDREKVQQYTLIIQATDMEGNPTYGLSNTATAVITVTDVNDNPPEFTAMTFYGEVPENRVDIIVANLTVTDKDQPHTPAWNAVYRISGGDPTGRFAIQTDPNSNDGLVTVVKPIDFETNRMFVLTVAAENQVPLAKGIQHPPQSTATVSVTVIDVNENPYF

[3] = target: T2, N-cadherin extracellular domains one to three recombinant protein with 6 histidine tag (human) (UniProt P19022); assay: phage ELISA, plate coated with ECD1-3-6HIS
T2 sequence (looked up): T1 sequence (looked up)

[4] = target: T1, N-cadherin extracellular domains one to three recombinant protein with GST tag (human); assay: phage ELISA, second phage batch, plate coated with ECD1-3-GST
[5] = target: T2, N-cadherin extracellular domains one to three recombinant protein with 6 histidine tag (human); assay: phage ELISA, second phage batch, plate coated with ECD1-3-6HIS
[6] = target: T3, N-cadherin on the cell surface (PC3 cells and LNCaP N-cadherin transfected cells) (human, UniProt P19022 160-906); assay: flow cytometry, diabody at 2 ug/ml on PC3 cells
T3 construct: whole, on cells; DU145 and untransfected LNCaP cells served as N-cadherin negative cells; also called cellular N-cadherin; cell surface N-cadherin
T3 sequence (looked up): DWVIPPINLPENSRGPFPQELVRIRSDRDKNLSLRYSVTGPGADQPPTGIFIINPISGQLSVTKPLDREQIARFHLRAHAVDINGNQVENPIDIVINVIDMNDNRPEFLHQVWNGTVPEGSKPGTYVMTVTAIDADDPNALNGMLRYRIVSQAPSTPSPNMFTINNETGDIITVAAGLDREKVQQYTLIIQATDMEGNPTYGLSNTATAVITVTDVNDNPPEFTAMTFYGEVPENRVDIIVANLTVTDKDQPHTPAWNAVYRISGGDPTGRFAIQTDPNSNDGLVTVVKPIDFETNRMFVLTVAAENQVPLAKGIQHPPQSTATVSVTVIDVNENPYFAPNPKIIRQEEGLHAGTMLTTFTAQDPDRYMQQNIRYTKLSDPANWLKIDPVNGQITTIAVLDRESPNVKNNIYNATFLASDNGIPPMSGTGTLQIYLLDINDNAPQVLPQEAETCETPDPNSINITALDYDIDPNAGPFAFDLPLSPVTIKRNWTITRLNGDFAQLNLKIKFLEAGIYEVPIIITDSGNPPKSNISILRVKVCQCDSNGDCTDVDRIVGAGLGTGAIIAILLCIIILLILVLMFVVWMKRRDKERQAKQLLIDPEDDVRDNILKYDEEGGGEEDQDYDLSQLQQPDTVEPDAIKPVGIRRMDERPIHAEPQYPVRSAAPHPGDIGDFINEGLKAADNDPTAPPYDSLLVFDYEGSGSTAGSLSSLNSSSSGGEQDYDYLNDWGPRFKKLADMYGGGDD

[7] = target: T4, N-cadherin extracellular domains one to three recombinant protein with 6 histidine tag (human, UniProt P19022 160-497); assay: phage ELISA
T4 construct: range 160-497; Expressed in bacteria and purified from the periplasmic fraction on Ni-NTA; also called ECD1-3-6HIS; ECD1-3 6HIS; not shown: 6 histidine tag
T4 sequence (looked up): T1 sequence (looked up)

[8] = target: T3, N-cadherin on the cell surface (PC3 …); assay: flow cytometry, diabody on N-cadherin positive cells
Procedure: Flow cytometry was conducted to assess binding of phage antibody clones and diabodies to cellular N-cadherin. For phage antibody staining supernatant concentrated 20 times was used. Individual clones were grown in 20 ml 2TY to a density of 0.5 O.D_{600 nm} when phage were rescued with helper phages. After an overnight culture, monoclonal phage were harvested from the supernatant by precipitation with PEG/NaCl and resuspended in 1 ml PBS/1% BSA. For flow cytometry staining, 5×10⁵ cells were incubated for one hour on ice with 100 μl of 20×PEG concentrated phage antibody clone. Cells were washed in flow buffer (PBS 1% FBS, 1 mM EDTA, 0.02% Sodium azide) and the phage antibody clones detected with monoclonal anti-M13 antibody (Amersham Biosciences). Cells were washed and stained with R-PE congugated anti-mouse antibody. For diabody staining, 5×10⁵ cells were incubated for one hour on ice with the diabody at a 2 μg/ml concentration in flow buffer. Cells were washed and the diabody detected with 1/100 anti-c-Myc-biotin antibody in flow buffer. Cells were finally washed and stained with 1/40 Streptavidin-R-PE (SIGMA) in flow buffer.
The eleven individual phage clones selected by ELISA were tested for cell binding of N-cadherin positive cells (PC3 and LNCaP N-cadherin transfected cells) by flow cytometry. […]

B1: D4 phage antibody clone (scFv)
scFv: MAQVQLVQSGAEVKRPGASVRISCKASGYPFTTYPIHWVRQAPGQGLEWMGGINPNSGATKNVQKFQGRVTMTADTSIRTAYMELSRLTSDDTAVYYCARGEGDTGSYLGGYWGLGTLVTVSSGGGGSGGGGSGGGGSSELTQDPAVSVALGQTVRITCQGDSLRSYYASWYQQKPGRAPLLVIYGKNIRPSGIPDRFSGSSSGNSASLTITGAQAEDEADYYCNSRDRSGNYLFGVGTKVTVLG
Flow Cytometry (MFI) [1]: 0 MFI

B2: A8 phage antibody clone (truncated) (scFv)
scFv: MAQVQLQESGWYFDLWGRGTPVTVSSGGGGSGGGGSGGGGSEIVLTQSPSSLSASVGDRVTITCRASQGIRNDLGWYQQKPGKAPKLLIYAASSLQSGVPSRFSGSGSGTDFTLTISSLQPEDFATYYCLQDYNGWTFGQGTKVEIKR
1st ELISA (O.D) [2]: 0.17 O.D
1st ELISA (O.D) [3]: 0.25 O.D
2nd ELISA (O.D) [4]: 0.05 O.D
2nd ELISA (O.D) [5]: 0.11 O.D
Flow Cytometry (MFI) [1]: 30 MFI

B3: D4 diabody (other)
chain: MAQVQLVQSGAEVKRPGASVRISCKASGYPFTTYPIHWVRQAPGQGLEWMGGINPNSGATKNVQKFQGRVTMTADTSIRTAYMELSRLTSDDTAVYYCARGEGDTGSYLGGYWGLGTLVTVSSGGGGSSELTQDPAVSVALGQTVRITCQGDSLRSYYASWYQQKPGRAPLLVIYGKNIRPSGIPDRFSGSSSGNSASLTITGAQAEDEADYYCNSRDRSGNYLFGVGTKVTVLG
notes: Diabody made from the scFv by shortening the linker; also called D4 Db; not shown: c-Myc and 6HIS tags from the pSyn1 vector
binding result [6]: binds

B4: A14 ScFv phage antibody clone (scFv)
scFv: MAQVQLVQSGGGLAQPGGSLRLSCAASGFTFSRHAMIWVRQAPGKGLEWVSSISGSSDSTSYADSVKGRFTISRDNSKNTLYLQMNTLRAEDTAVYYCAKATGYSYYYGMDVWGPGTTVTVSSGGGGSGGGGSGGGGSDIQMTQSPSSLSASLGDRVTITCRASQGISNYLAWYQQKPGKAPKLLIYGATTLQHGVPSRFSGSGSGTDFSLTISSLQPEDFAIYFCQQAHSFPPTFGGGTKLEIKR
notes: Clone A1 was renamed A14; Selected on ECD4-6HIS; also called A14 (A1)
binding result [7]: no binding

B5: E4 diabody (other)
chain: MAQVQLVQSGAEVKKPGESLEISCKGSGYSFANNWIGWVRQMPGKGLEWMGSIYPGDSDVRYSRSFQGHVTISADKSISTAYLQWSSLKASDTAMYYCARHRVAYSGYDAFDIWGQGTMVTVSSGGGGSSVLTQDPAVSVALGQTVRITCQGDSLRSYYPSWYQQKPGQAPVLVIYGKNNRPSGIPDRFSGSSSGNTASLTITGAQAEDEADYYCHSRDRSGNQVLFGGGTKVTVLG
notes: Diabody made from the scFv by shortening the linker; also called E4 Db; not shown: c-Myc and 6HIS tags from the pSyn1 vector
binding result [8]: binds

B6: A14 diabody (other)
chain: MAQVQLVQSGGGLAQPGGSLRLSCAASGFTFSRHAMIWVRQAPGKGLEWVSSISGSSDSTSYADSVKGRFTISRDNSKNTLYLQMNTLRAEDTAVYYCAKATGYSYYYGMDVWGPGTTVTVSSGGGGSDIQMTQSPSSLSASLGDRVTITCRASQGISNYLAWYQQKPGKAPKLLIYGATTLQHGVPSRFSGSGSGTDFSLTISSLQPEDFAIYFCQQAHSFPPTFGGGTKLEIKR
notes: Diabody (small bivalent antibody fragment) made from the scFv by shortening the linker from 15 to 5 a.a; also called A14 Db; not shown: c-Myc and 6HIS tags from the pSyn1 vector
binding result [8]: binds
